According to article PMC12015630:

Molecular target: LmrR_V15aY
Assay: SEC; purified LmrR_V15aY after affinity chromatography; conditions not shown (Fig. S2, ESI)

LmrR_V15aY (enzyme)
stoichiometry N: 2
